Assay results: publication PMC9461283 (Biosafety and Health, 2022)

B1: African Green monkey (Chlorocebus sabaeus) ACE2 ectodomain (ectoACE2), N-terminal 367 aa (domain or fragment)
chain: QSTIEEQAKTFLDKFNPEAEDLFYQSSLASWNYNTNITEENVQNMNNAGEKWSAFLKEQSTLAQMYPLQAIQNLTVKLQLQALQQNGSSVLSEDKSKRLNTILNTMSTIYSTGKVCNPNNPQECLLLDPGLNEIMEKSLDYNERLWAWEGWRSEVGKQLRPLYEEYVVLKNEMARANHYKDYGDYWRGDYEVNGVDGYDYNRDQLIEDVERTFEEIKPLYEHLHAYVRAKLMNAYPSYISPTGCLPAHLLGDMWGRFWTNLYSLTVPFGQKPNIDVTDAMVNQAWNAQRIFKEAEKFFVSVGLPNMTQGFWENSMLTDPGNVQKVVCHPTAWDLGKGDFRIIMCTKVTMD
B2: human ACE2 ectodomain (ectoACE2), N-terminal 367 aa (domain or fragment)
chain: QSTIEEQAKTFLDKFNHEAEDLFYQSSLASWNYNTNITEENVQNMNNAGDKWSAFLKEQSTLAQMYPLQEIQNLTVKLQLQALQQNGSSVLSEDKSKRLNTILNTMSTIYSTGKVCNPDNPQECLLLEPGLNEIMANSLDYNERLWAWESWRSEVGKQLRPLYEEYVVLKNEMARANHYEDYGDYWRGDYEVNGVDGYDYSRGQLIEDVEHTFEEIKPLYEHLHAYVRAKLMNAYPSYISPIGCLPAHLLGDMWGRFWTNLYSLTVPFGQKPNIDVTDAMVDQAWDAQRIFKEAEKFFVSVGLPNMTQGFWENSMLTDPGNVQKAVCHPTAWDLGKGDFRILMCTKVTMD

How the values were obtained:
[1] = target: SARS-CoV-2 S receptor-binding domain (RBD) (SARS-CoV-2 (isolate Wuhan-Hu-1), UniProt P0DTC2); assay: SPR
[2] = target: SARS-CoV-2 S receptor-binding domain (RBD) (SARS-CoV-2 (isolate Wuhan-Hu-1), UniProt P0DTC2); assay: SPR; remark: listed apart in the source

Row | Binder | Kd [1] [nM] | Kd [2] [nM]
1 | B1 | 67.6 | 
2 | B2 |  | 61.2
